Drawing on article PMC3365014, “Specific Recognition of p53 Tetramers by Peptides Derived from p53 Interacting Proteins” (PLoS ONE, 2012), this text covers Kd and Estimated physiological Kd for two substances.

In assay [1] the target is p53 monomer (Homo sapiens) (UniProt P04637). As to conditions: cited from earlier work.
The target in assay [2] is WS100B(61–75), fluorescein-labeled. Put plainly: fluorescence polarisation; fluorescence anisotropy at increasing NaCl; p53CTD titrated into 200 nM peptide; 10 mM sodium phosphate pH 7.2, 25°C; ln(Kd) against ln(NaCl activity) fit linearly and extrapolated to physiological ionic strength.

Regarding p53 monomer (from UniProt P04637), the Kd in assay [1] is 1 nM.

For “p53 C-terminal domain (p53CTD, residues 293–393) (from UniProt P04637 293-393) (domain or fragment)”, the Estimated physiological Kd in assay [2] was 19 µM.

Broadly, the Kd is the concentration at which binding is half-saturated.
